Data taken from patent US20250136721A1 (GlaxoSmithKline, published 2025).
Substitutions are numbered along the chain they refer to. In names and notes the source's numbering stands. Several values for one entry are separate records, joined by “and”; a condition that tells them apart may be missing. Identical values can stand only once.

B1: DOM1H-131-206 with a C-terminal alanine extension (other)
VH: EVQLLESGGGLVQPGGSLRLSCAASGFTFAHETMVWVRQAPGKGLEWVSHIPPDGQDPFYADSVKGRFTISRDNSKNTLYLQMNSLRAEDTAVYHCALLPKRGPWFDYWGQGTLVTVSSA
notes: VH dAb variant
B2: DOM1H-131-206 (other)
VH: EVQLLESGGGLVQPGGSLRLSCAASGFTFAHETMVWVRQAPGKGLEWVSHIPPDGQDPFYADSVKGRFTISRDNSKNTLYLQMNSLRAEDTAVYHCALLPKRGPWFDYWGQGTLVTVSS
notes: human anti-TNFR1 VH domain antibody (dAb); biotinylated or Sulfo-Tag labelled where it is the assay reagent
B3: DOM10H-53-567 C-terminal AST (protein)
VH: GVQLLESGGGLVQPGGSLRLSCAASGFVFAWYDMGWVRQAPGKGLEWVSSIDWHGEVTYYADSVKGRFTISRDNSKNTLYLQMNSLRAEDTAVYYCATAEDEPGYDYWGQGTLVTVSSAST
B4: DOM10H-53-567 C-terminal A (protein)
VH: GVQLLESGGGLVQPGGSLRLSCAASGFVFAWYDMGWVRQAPGKGLEWVSSIDWHGEVTYYADSVKGRFTISRDNSKNTLYLQMNSLRAEDTAVYYCATAEDEPGYDYWGQGTLVTVSSA
B5: DOM10H-53-567 C-terminal ASTK (protein)
VH: GVQLLESGGGLVQPGGSLRLSCAASGFVFAWYDMGWVRQAPGKGLEWVSSIDWHGEVTYYADSVKGRFTISRDNSKNTLYLQMNSLRAEDTAVYYCATAEDEPGYDYWGQGTLVTVSSASTK
B6: DOM10H-53-567 (protein)
VH: GVQLLESGGGLVQPGGSLRLSCAASGFVFAWYDMGWVRQAPGKGLEWVSSIDWHGEVTYYADSVKGRFTISRDNSKNTLYLQMNSLRAEDTAVYYCATAEDEPGYDYWGQGTLVTVSS
B7: DOM10H-53-567 C-terminal ASTKG (protein)
VH: GVQLLESGGGLVQPGGSLRLSCAASGFVFAWYDMGWVRQAPGKGLEWVSSIDWHGEVTYYADSVKGRFTISRDNSKNTLYLQMNSLRAEDTAVYYCATAEDEPGYDYWGQGTLVTVSSASTKG
B8: DOM10H-53-567 C-terminal AS (protein)
VH: GVQLLESGGGLVQPGGSLRLSCAASGFVFAWYDMGWVRQAPGKGLEWVSSIDWHGEVTYYADSVKGRFTISRDNSKNTLYLQMNSLRAEDTAVYYCATAEDEPGYDYWGQGTLVTVSSAS
B9: DOM1H-131-206 G44E, H91S (other, name in Kabat numbering)
VH: B2 VH with G44E, H95S
notes: VH dAb variant
B10: DOM1H-131-206 H91S (other, name in Kabat numbering)
VH: B2 VH with H95S
notes: VH dAb variant
B11: DOM1H-131-206 G44E, L108Q (other, name in Kabat numbering)
VH: B2 VH with G44E, L114Q
notes: VH dAb variant
B12: DOM1H-131-206 P14A, G44E (other, name in Kabat numbering)
VH: B2 VH with P14A, G44E
notes: VH dAb variant
B13: DOM1H-131-206 P14A, H91S (other, name in Kabat numbering)
VH: B2 VH with P14A, H95S
notes: VH dAb variant
B14: DOM1H-131-206 P41A (other, name in Kabat numbering)
VH: B2 VH with P41A
notes: VH dAb variant
B15: DOM1H-131-206 G44E (other, name in Kabat numbering)
VH: B2 VH with G44E
notes: VH dAb variant
B16: DOM1H-131-206 K43A (other, name in Kabat numbering)
VH: B2 VH with K43A
notes: VH dAb variant
B17: DOM1H-131-206 R83A (other, name in Kabat numbering)
VH: B2 VH with R87A
notes: VH dAb variant
B18: Clone VHH2(f) (VHH)
VHH: EVQLVESGGGLVQPGGSLRLSCAASGRTFSYNPMGWFRQAPGKGRELVAAISRTGGSTYYPDSVEGRFTISRDNAKRMVYLQMNSLRAEDTAVYYCAAAGVRAEDGRVRTLPSEYTFWGQGTQVTVSSAAAEVQLVESGGGLVQPGGSLRLSCAASGRTFSYNPMGWFRQAPGKGRELVAAISRTGGSTYYPDSVEGRFTISRDNAKRMVYLQMNSLRAEDTAVYYCAAAGVRAEDGRVRTLPSEYTFWGQGTQVTVSS
B19: VHH2(f) + A (VHH)
VHH: EVQLVESGGGLVQPGGSLRLSCAASGRTFSYNPMGWFRQAPGKGRELVAAISRTGGSTYYPDSVEGRFTISRDNAKRMVYLQMNSLRAEDTAVYYCAAAGVRAEDGRVRTLPSEYTFWGQGTQVTVSSAAAEVQLVESGGGLVQPGGSLRLSCAASGRTFSYNPMGWFRQAPGKGRELVAAISRTGGSTYYPDSVEGRFTISRDNAKRMVYLQMNSLRAEDTAVYYCAAAGVRAEDGRVRTLPSEYTFWGQGTQVTVSSA

Target: T1, cynomolgus monkey TNFR1 (cynomolgus monkey, UniProt Q2PFV5 30-211)
T1 sequence: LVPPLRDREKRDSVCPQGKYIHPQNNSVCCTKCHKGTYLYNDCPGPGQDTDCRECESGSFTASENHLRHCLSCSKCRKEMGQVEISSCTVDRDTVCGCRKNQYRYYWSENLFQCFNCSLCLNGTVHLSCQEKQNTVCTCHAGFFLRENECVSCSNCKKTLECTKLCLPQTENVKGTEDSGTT
Assay: SPR (Biacore T100), same format with cynomolgus monkey TNFR1, dAb as analyte, 1:1 model

Row | Binder | Kd [nM] | koff [s⁻¹] | kon [M⁻¹ s⁻¹]
1 | B1 | 0.0197 | 0.000189 | 9.6e+06
2 | B2 | 0.015 | 0.000151 | 1.01e+07

Target: pre-existing anti-VH ADA in human serum
Assay: ADA confirmation assay (MSD) described previously, mean of 10 donor sera

Row | Binder | % inhibition in confirmation assay [%]
3 | B3 | 29
4 | B4 | 12.8
5 | B5 | 27.7
6 | B6 | 95.1
7 | B7 | 13.4
8 | B8 | 14.8

Target: T2, Recombinant human TNFR1-Fc (human, UniProt P19438 30-211, limits assumed)
T2 construct: bought reagent; also called hTNFR1:Fc; not shown: Fc part; not described
T2 sequence (looked up): T1 sequence with P4H, R6G, V28I, Y105H, T159S, T170I
Assay: ELISA: dAb on coated recombinant human TNFR1-Fc, anti-Vh detection

Row | Binder | EC50 [nM]
9 | B9 | 3.5
10 | B10 | 0.96
11 | B11 | 1.64
12 | B12 | 2.03
13 | B13 | 0.75
14 | B14 | 0.59
15 | B15 | 0.86
16 | B16 | 0.67
17 | B17 | 0.76

Target: pre-existing anti-VH ADA in human serum
Assay: ADA confirmation assay (MSD): 10 ug/mL test material against labelled DOM1H-131-206, mean of 10 sera

Row | Binder | Mean % inhibition of signal in confirmation assay [%]
18 | B1 | 1.12

Target: T3, cynomolgus monkey TNFR1 (on monkey cells) (cynomolgus monkey, UniProt Q2PFV5 30-455)
T3 sequence: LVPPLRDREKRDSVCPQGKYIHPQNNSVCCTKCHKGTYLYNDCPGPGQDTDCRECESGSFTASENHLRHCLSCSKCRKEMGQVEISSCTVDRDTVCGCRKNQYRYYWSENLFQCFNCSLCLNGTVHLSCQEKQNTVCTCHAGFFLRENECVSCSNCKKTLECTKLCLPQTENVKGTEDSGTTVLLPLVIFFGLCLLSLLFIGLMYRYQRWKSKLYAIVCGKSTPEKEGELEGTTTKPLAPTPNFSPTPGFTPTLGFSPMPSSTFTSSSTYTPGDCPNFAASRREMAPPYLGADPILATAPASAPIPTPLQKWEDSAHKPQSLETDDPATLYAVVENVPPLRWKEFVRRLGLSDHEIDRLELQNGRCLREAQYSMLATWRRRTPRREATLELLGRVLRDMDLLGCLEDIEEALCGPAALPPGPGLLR
Assay: cell-based or functional assay

Row | Binder | IC50, inhibition of LPS-induced IL-8, Cynomolgus monkey whole blood (n = 3) [nM] | IC50, inhibition of TNFα-induced IL-8, CYNOMK1 Cynomolgus monkey skin fibroblasts (n = 2) [nM]
19 | B1 | 0.4 | 4.7
20 | B2 | 0.5 | 4.8

Target: T4, human TNFR1 (on human cells) (human, UniProt P19438 30-455)
T4 sequence (looked up): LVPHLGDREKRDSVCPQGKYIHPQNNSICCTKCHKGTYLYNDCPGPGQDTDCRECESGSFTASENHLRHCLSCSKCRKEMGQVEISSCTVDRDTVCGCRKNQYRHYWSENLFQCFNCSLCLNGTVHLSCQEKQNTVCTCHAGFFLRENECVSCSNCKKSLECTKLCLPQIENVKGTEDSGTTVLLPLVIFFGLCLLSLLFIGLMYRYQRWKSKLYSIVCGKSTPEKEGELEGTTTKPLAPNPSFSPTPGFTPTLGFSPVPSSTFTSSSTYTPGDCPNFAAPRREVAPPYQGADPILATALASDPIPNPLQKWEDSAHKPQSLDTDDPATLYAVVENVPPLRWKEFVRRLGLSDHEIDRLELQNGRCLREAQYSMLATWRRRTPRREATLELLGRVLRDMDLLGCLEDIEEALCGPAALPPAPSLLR
Assay: cell-based or functional assay

Row | Binder | IC50, inhibition of TNFα-induced IL-8, A549 human lung epithelium (n = 2) [nM] | IC50, inhibition of TNFα-induced IL-8, Human whole blood (n = 3-5) [nM] | IC50, inhibition of TNFα-induced IL-8, MRC5 human lung fibroblast (n = 3) [nM]
21 | B1 | 1 | 0.9 | 3.5
22 | B2 | 1 | 1.6 | 4.8

Target: pre-existing anti-VH ADA in human serum
Assay: ADA confirmation assay (MSD): 10 ug/mL test material against labelled DOM1H-131-206; share of 10 ADA-positive sera with binding

Row | Binder | % subjects with ADA binding (10 subjects) (% of subjects)
23 | B2 | 100
24 | B9 | 100
25 | B10 | 100
26 | B11 | 100
27 | B12 | 100
28 | B13 | 60
29 | B14 | 100
30 | B15 | 100
31 | B16 | 100
32 | B17 | 100

Target: T2, Recombinant human TNFR1-Fc
Assay: SPR (Biacore T100): TNFR1:Fc captured by anti-human IgG on a CM4 chip, dAb as analyte, 1:1 model

Row | Binder | Kd [nM] | koff [s⁻¹] | kon [M⁻¹ s⁻¹]
33 | B1 | 0.0253 | 0.000229 | 9.02e+06
34 | B2 | 0.0143 | 0.000142 | 9.94e+06

Target: pre-existing anti-VH ADA in human serum
Assay: ADA confirmation assay (MSD): 10 ug/mL test material against labelled DOM1H-131-206, mean of 10 sera
Remark: another data set of the same source

Row | Binder | Mean % inhibition of signal in confirmation assay
35 | B1 | 15.7%
36 | B2 | 96.1% and 99.5%
37 | B9 | 99.1%
38 | B10 | 99.4%
39 | B11 | 91.3%
40 | B12 | 61.6%
41 | B13 | 50.2%
42 | B14 | 87.3%
43 | B15 | 99.5%
44 | B16 | 99.5%
45 | B17 | 99.3%

Target: pre-existing anti-VH ADA in human serum
Assay: ADA confirmation assay of Example 2 (MSD): test material against labelled DOM1H-131-206

Row | Binder | Mean % Inhibition [%]
46 | B18 | 94.2
47 | B19 | 17.5
